Measured values as given in patent US20230212312A1.

Target: complement factor C1q
Assay: FACS, C1q on antibody-coated BT-474 cells, 10 ug/ml each

complement factor C1q, sequence (P02745 23-245, chain 1 of 3): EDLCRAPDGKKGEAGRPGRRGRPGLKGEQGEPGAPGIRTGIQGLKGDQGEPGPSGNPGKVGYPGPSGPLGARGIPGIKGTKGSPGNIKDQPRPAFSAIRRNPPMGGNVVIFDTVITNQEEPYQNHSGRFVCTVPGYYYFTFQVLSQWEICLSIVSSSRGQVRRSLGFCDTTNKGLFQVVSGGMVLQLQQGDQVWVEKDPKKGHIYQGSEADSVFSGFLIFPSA
complement factor C1q, sequence (P02746 28-253, chain 2 of 3, further chain): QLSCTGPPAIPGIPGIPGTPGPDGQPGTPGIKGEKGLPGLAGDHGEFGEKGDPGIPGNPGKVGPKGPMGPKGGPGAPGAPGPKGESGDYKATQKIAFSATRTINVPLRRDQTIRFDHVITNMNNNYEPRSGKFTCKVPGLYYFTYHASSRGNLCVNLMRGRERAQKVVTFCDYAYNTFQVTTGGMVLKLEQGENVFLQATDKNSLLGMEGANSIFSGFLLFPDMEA
complement factor C1q, sequence (P02747 29-245, chain 3 of 3, further chain): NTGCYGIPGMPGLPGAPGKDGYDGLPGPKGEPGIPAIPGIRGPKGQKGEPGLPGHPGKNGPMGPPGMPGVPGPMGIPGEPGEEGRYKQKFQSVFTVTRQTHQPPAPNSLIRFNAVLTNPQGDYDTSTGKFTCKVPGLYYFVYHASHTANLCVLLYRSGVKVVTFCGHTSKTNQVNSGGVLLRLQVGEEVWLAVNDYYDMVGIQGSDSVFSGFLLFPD

- PE-signal (geomean): 2160
Substance: combination of trastuzumab and pertuzumab
